Results taken from US20150344570A1 (published 2015).

Target: T1, FcγRIa (human, UniProt P12314 16-292)
T1 construct: extracellular domain; also called FcgRI; FcgRIa; not shown: His tag attached to the C terminus
Test: SPR (Biacore), relative binding; control HeCon Ab GpH7-A5/GpH7-B3/GpL16-k0

T1 sequence (P12314 16-292): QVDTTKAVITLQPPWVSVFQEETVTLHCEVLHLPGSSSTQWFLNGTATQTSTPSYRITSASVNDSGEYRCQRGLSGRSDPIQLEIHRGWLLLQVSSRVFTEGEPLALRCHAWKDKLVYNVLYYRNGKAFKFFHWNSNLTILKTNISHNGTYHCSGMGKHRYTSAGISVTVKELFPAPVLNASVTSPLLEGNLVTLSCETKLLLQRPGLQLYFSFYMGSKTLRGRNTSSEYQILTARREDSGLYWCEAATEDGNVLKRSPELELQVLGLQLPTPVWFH

Row | Binder | He/Con_1a
1 | GpH7-A5/GpH7-B3 variant P271_10E/GpL16-k0 (antibody, human IgG1, kappa, Alteration in one H chain only; also called He Ab P271_10E) heavy 1: not shown heavy 2: not shown light: DIVMTQSPLSLPVTPGEPASISCQASESLVHSNRNTYLHWYLQKPGQSPQLLIYKVSNRFSGVPDRFSGSGSGTDFTLKISRVEAEDVGVYYCSQNTHVPPTFGQGTKVEIERTVAAPSVFIFPPSDEQLKSGTASVVCLLNNFYPREAKVQWKVDNALQSGNSQESVTEQDSKDSTYSLSSTLTLSKADYEKHKVYACEVTHQGLSSPVTKSFNRGEC | 103 % of control (=100)
2 | GpH7-A5/GpH7-B3 variant Q295_12R/GpL16-k0 (antibody, human IgG1, kappa, Alteration in one H chain only; also called He Ab Q295_12R) heavy 1: not shown heavy 2: not shown light: DIVMTQSPLSLPVTPGEPASISCQASESLVHSNRNTYLHWYLQKPGQSPQLLIYKVSNRFSGVPDRFSGSGSGTDFTLKISRVEAEDVGVYYCSQNTHVPPTFGQGTKVEIERTVAAPSVFIFPPSDEQLKSGTASVVCLLNNFYPREAKVQWKVDNALQSGNSQESVTEQDSKDSTYSLSSTLTLSKADYEKHKVYACEVTHQGLSSPVTKSFNRGEC | 100 % of control (=100)
3 | GpH7-A5/GpH7-B3 variant S267_19Q/GpL16-k0 (antibody, human IgG1, kappa, Alteration in one H chain only; also called He Ab S267_19Q) heavy 1: not shown heavy 2: not shown light: DIVMTQSPLSLPVTPGEPASISCQASESLVHSNRNTYLHWYLQKPGQSPQLLIYKVSNRFSGVPDRFSGSGSGTDFTLKISRVEAEDVGVYYCSQNTHVPPTFGQGTKVEIERTVAAPSVFIFPPSDEQLKSGTASVVCLLNNFYPREAKVQWKVDNALQSGNSQESVTEQDSKDSTYSLSSTLTLSKADYEKHKVYACEVTHQGLSSPVTKSFNRGEC | 102 % of control (=100)
4 | GpH7-A5/GpH7-B3 variant S267_18N/GpL16-k0 (antibody, human IgG1, kappa, Alteration in one H chain only; also called He Ab S267_18N) heavy 1: not shown heavy 2: not shown light: DIVMTQSPLSLPVTPGEPASISCQASESLVHSNRNTYLHWYLQKPGQSPQLLIYKVSNRFSGVPDRFSGSGSGTDFTLKISRVEAEDVGVYYCSQNTHVPPTFGQGTKVEIERTVAAPSVFIFPPSDEQLKSGTASVVCLLNNFYPREAKVQWKVDNALQSGNSQESVTEQDSKDSTYSLSSTLTLSKADYEKHKVYACEVTHQGLSSPVTKSFNRGEC | 102 % of control (=100)
5 | GpH7-A5/GpH7-B3 variant Q295_10E/GpL16-k0 (antibody, human IgG1, kappa, Alteration in one H chain only; also called He Ab Q295_10E) heavy 1: not shown heavy 2: not shown light: DIVMTQSPLSLPVTPGEPASISCQASESLVHSNRNTYLHWYLQKPGQSPQLLIYKVSNRFSGVPDRFSGSGSGTDFTLKISRVEAEDVGVYYCSQNTHVPPTFGQGTKVEIERTVAAPSVFIFPPSDEQLKSGTASVVCLLNNFYPREAKVQWKVDNALQSGNSQESVTEQDSKDSTYSLSSTLTLSKADYEKHKVYACEVTHQGLSSPVTKSFNRGEC | 103 % of control (=100)
6 | GpH7-A5/GpH7-B3 variant S337_14T/GpL16-k0 (antibody, human IgG1, kappa, Alteration in one H chain only; also called He Ab S337_14T) heavy 1: not shown heavy 2: not shown light: DIVMTQSPLSLPVTPGEPASISCQASESLVHSNRNTYLHWYLQKPGQSPQLLIYKVSNRFSGVPDRFSGSGSGTDFTLKISRVEAEDVGVYYCSQNTHVPPTFGQGTKVEIERTVAAPSVFIFPPSDEQLKSGTASVVCLLNNFYPREAKVQWKVDNALQSGNSQESVTEQDSKDSTYSLSSTLTLSKADYEKHKVYACEVTHQGLSSPVTKSFNRGEC | 105 % of control (=100)
7 | GpH7-A5/GpH7-B3 variant S324_09D/GpL16-k0 (antibody, human IgG1, kappa, Alteration in one H chain only; also called He Ab S324_09D) heavy 1: not shown heavy 2: not shown light: DIVMTQSPLSLPVTPGEPASISCQASESLVHSNRNTYLHWYLQKPGQSPQLLIYKVSNRFSGVPDRFSGSGSGTDFTLKISRVEAEDVGVYYCSQNTHVPPTFGQGTKVEIERTVAAPSVFIFPPSDEQLKSGTASVVCLLNNFYPREAKVQWKVDNALQSGNSQESVTEQDSKDSTYSLSSTLTLSKADYEKHKVYACEVTHQGLSSPVTKSFNRGEC | 104 % of control (=100)
8 | GpH7-A5/GpH7-B3 variant S239_10E/GpL16-k0 (antibody, human IgG1, kappa, Alteration in one H chain only; also called He Ab S239_10E) heavy 1: not shown heavy 2: not shown light: DIVMTQSPLSLPVTPGEPASISCQASESLVHSNRNTYLHWYLQKPGQSPQLLIYKVSNRFSGVPDRFSGSGSGTDFTLKISRVEAEDVGVYYCSQNTHVPPTFGQGTKVEIERTVAAPSVFIFPPSDEQLKSGTASVVCLLNNFYPREAKVQWKVDNALQSGNSQESVTEQDSKDSTYSLSSTLTLSKADYEKHKVYACEVTHQGLSSPVTKSFNRGEC | 105 % of control (=100)
9 | GpH7-A5/GpH7-B3 variant S267_06M/GpL16-k0 (antibody, human IgG1, kappa, Alteration in one H chain only; also called He Ab S267_06M) heavy 1: not shown heavy 2: not shown light: DIVMTQSPLSLPVTPGEPASISCQASESLVHSNRNTYLHWYLQKPGQSPQLLIYKVSNRFSGVPDRFSGSGSGTDFTLKISRVEAEDVGVYYCSQNTHVPPTFGQGTKVEIERTVAAPSVFIFPPSDEQLKSGTASVVCLLNNFYPREAKVQWKVDNALQSGNSQESVTEQDSKDSTYSLSSTLTLSKADYEKHKVYACEVTHQGLSSPVTKSFNRGEC | 106 % of control (=100)
10 | GpH7-A5/GpH7-B3 variant S337_11K/GpL16-k0 (antibody, human IgG1, kappa, Alteration in one H chain only; also called He Ab S337_11K) heavy 1: not shown heavy 2: not shown light: DIVMTQSPLSLPVTPGEPASISCQASESLVHSNRNTYLHWYLQKPGQSPQLLIYKVSNRFSGVPDRFSGSGSGTDFTLKISRVEAEDVGVYYCSQNTHVPPTFGQGTKVEIERTVAAPSVFIFPPSDEQLKSGTASVVCLLNNFYPREAKVQWKVDNALQSGNSQESVTEQDSKDSTYSLSSTLTLSKADYEKHKVYACEVTHQGLSSPVTKSFNRGEC | 104 % of control (=100)
11 | GpH7-A5/GpH7-B3 variant P271_18N/GpL16-k0 (antibody, human IgG1, kappa, Alteration in one H chain only; also called He Ab P271_18N) heavy 1: not shown heavy 2: not shown light: DIVMTQSPLSLPVTPGEPASISCQASESLVHSNRNTYLHWYLQKPGQSPQLLIYKVSNRFSGVPDRFSGSGSGTDFTLKISRVEAEDVGVYYCSQNTHVPPTFGQGTKVEIERTVAAPSVFIFPPSDEQLKSGTASVVCLLNNFYPREAKVQWKVDNALQSGNSQESVTEQDSKDSTYSLSSTLTLSKADYEKHKVYACEVTHQGLSSPVTKSFNRGEC | 103 % of control (=100)
12 | GpH7-A5/GpH7-B3 variant S267_10E/GpL16-k0 (antibody, human IgG1, kappa, Alteration in one H chain only; also called He Ab S267_10E) heavy 1: not shown heavy 2: not shown light: DIVMTQSPLSLPVTPGEPASISCQASESLVHSNRNTYLHWYLQKPGQSPQLLIYKVSNRFSGVPDRFSGSGSGTDFTLKISRVEAEDVGVYYCSQNTHVPPTFGQGTKVEIERTVAAPSVFIFPPSDEQLKSGTASVVCLLNNFYPREAKVQWKVDNALQSGNSQESVTEQDSKDSTYSLSSTLTLSKADYEKHKVYACEVTHQGLSSPVTKSFNRGEC | 106 % of control (=100)
13 | GpH7-A5/GpH7-B3 variant S298_09D/GpL16-k0 (antibody, human IgG1, kappa, Alteration in one H chain only; also called He Ab S298_09D) heavy 1: not shown heavy 2: not shown light: DIVMTQSPLSLPVTPGEPASISCQASESLVHSNRNTYLHWYLQKPGQSPQLLIYKVSNRFSGVPDRFSGSGSGTDFTLKISRVEAEDVGVYYCSQNTHVPPTFGQGTKVEIERTVAAPSVFIFPPSDEQLKSGTASVVCLLNNFYPREAKVQWKVDNALQSGNSQESVTEQDSKDSTYSLSSTLTLSKADYEKHKVYACEVTHQGLSSPVTKSFNRGEC | 106 % of control (=100)
14 | GpH7-A5/GpH7-B3 variant P271_19Q/GpL16-k0 (antibody, human IgG1, kappa, Alteration in one H chain only; also called He Ab P271_19Q) heavy 1: not shown heavy 2: not shown light: DIVMTQSPLSLPVTPGEPASISCQASESLVHSNRNTYLHWYLQKPGQSPQLLIYKVSNRFSGVPDRFSGSGSGTDFTLKISRVEAEDVGVYYCSQNTHVPPTFGQGTKVEIERTVAAPSVFIFPPSDEQLKSGTASVVCLLNNFYPREAKVQWKVDNALQSGNSQESVTEQDSKDSTYSLSSTLTLSKADYEKHKVYACEVTHQGLSSPVTKSFNRGEC | 103 % of control (=100)
15 | GpH7-A5/GpH7-B3 variant S267_14T/GpL16-k0 (antibody, human IgG1, kappa, Alteration in one H chain only; also called He Ab S267_14T) heavy 1: not shown heavy 2: not shown light: DIVMTQSPLSLPVTPGEPASISCQASESLVHSNRNTYLHWYLQKPGQSPQLLIYKVSNRFSGVPDRFSGSGSGTDFTLKISRVEAEDVGVYYCSQNTHVPPTFGQGTKVEIERTVAAPSVFIFPPSDEQLKSGTASVVCLLNNFYPREAKVQWKVDNALQSGNSQESVTEQDSKDSTYSLSSTLTLSKADYEKHKVYACEVTHQGLSSPVTKSFNRGEC | 102 % of control (=100)
16 | GpH7-A5/GpH7-B3 variant S324_10E/GpL16-k0 (antibody, human IgG1, kappa, Alteration in one H chain only; also called He Ab S324_10E) heavy 1: not shown heavy 2: not shown light: DIVMTQSPLSLPVTPGEPASISCQASESLVHSNRNTYLHWYLQKPGQSPQLLIYKVSNRFSGVPDRFSGSGSGTDFTLKISRVEAEDVGVYYCSQNTHVPPTFGQGTKVEIERTVAAPSVFIFPPSDEQLKSGTASVVCLLNNFYPREAKVQWKVDNALQSGNSQESVTEQDSKDSTYSLSSTLTLSKADYEKHKVYACEVTHQGLSSPVTKSFNRGEC | 105 % of control (=100)
